The DeepSol protein solubility set

Assay: soluble on expression in E. coli; label from the status in PepcDB or PDB records

Row | Sequence | soluble on expression in E. coli
1 | MEKQQDLPFPYEFRELNPEEDKLVKANLGAFPTTYVKLGPKGYMVYRPYLKDAANIYNMPLRPTDVFVASYQRSGTTMTQELVWLIENDLNFEAAKTYMSLRYIYLDGFMIYDPEKQEEYNDILPNPENLDMERYLGLLEYSSRPGSSLLAAVPPTEKRFVKTHLPLSLMPPNMLDTVKMVYLARDPRDVAVSSFHHARLLYLLNKQSNFKDFWEMFHRGLYTLTPYFEHVKEAWAKRHDPNMLFLFYEDYLKDLPGCIARIADFLGKKLSEEQIQRLCEHLNFEKFKNNGAVNMEDYREIGILADGEHFIRKGKAGCWRDYFDEEMTKQAEKWIKDNLKDTDLRYPNMEL | soluble
2 | MEKTYKLPIVLGTDPENTIRIDKLPPLKGAFAVHIHESETENNAHIKLEYGDTEYCLSLYVFNYPKFLRNETVRVRNYDLWPKWIMFAARLPNGKLHPKSGGKVYREDAVIVGEGNYELENPFISFKYSDGRILNFRIEFYRYLRYKSPKYGPSFRSEYWFIGVD | not soluble
3 | MEKVEHLNLNIQNILEDVDIDTASSSSDDEPEQAVVKQEKLEAGEQIEEQYDTDSDYDDDIVEFAEATGDFTKKLNAARLNTIGPNAARNRLTVDVERHADTSEDRKRKRVKDRADRATVEQVLDPRTRLVLFRLLQRGTLLNIDGCISTGKEANVYHATGTDNDLAIKIYKTSILTFKDRERYVTGEFRYRHGYCKSNPRKMVAVWAEKEMRNLARMHEVGLPVPKPHLLKGHVLVMDFLGKDGWPAPLLKNANLSQEDAEPMYVGLVRDMRRLYRECKLVHADLSEFNMLVHDGKLWIIDVSQSVEQDHPHALEFLRMDCNNVNKFFRELGVPVLSVRRLFEVIVDPLMSSKEMETIIEEERVLVNSEDDSLFMNAFIPHKLEHVLHFERDGKLAKEGVEANNPFQNIVSKIDLKGDGFGEEHDDSDDNDDEENGKKSRKKRAEPTEEEIQEKERKIAMHTRNREETAEERKERKAAVKEEKREQRKEKIPKHLKKRAHRQHMKYQSSPWSTLINCLHTLVP | not soluble
4 | MELKEELLRGIYGFGFEKPSAIQKSAVAPCTTGKDVTIQSQAGSGKTVISLIDILQGIDCEDAHLQVILLAPQRGMAQRAHEQLKSLGRNLNVNATCLGFDTTAENDKISHVLMGTPKDFLSNIPSDTSRIKMFVLDEADEMLSKGFKDQIYEVFRSMPQDVQVVLLSATMPSEVLDVTNRFMRDPIRILVKKDELTLEGIRQFYINVQKDEWKFNCLCDLLKTSRETQALIFCNTRRRVTQLTEQLMSIPIKVSCFHGNMEHNEREDMVKDFNSRNTRVLVTTDLMARGMNIRKSLIINYDVSGNMENYMLRNGRQGNFGSKGLPISFFTENDISDLKKIENHYSTRIEEMPESFLEYLDEN | not soluble
5 | MELMKDDRYSPDWKNIAITKKQSVHWVCEWCGVQCLKPGEGKGLLKEERYRLRMAVHHCDYDPGNNSPSNLMAVCSPCHLYYHRRQQGNITPGQLKITINLEHHHHHH | soluble
6 | MELTLQKYGSYEKFEQATGGSLLSKTRIWSHVRKYMVKEGCLGEIVVHLTEDLLSRASMTVVNGCPTLTINISTAREHWLEGMLRHEIGTHYFRGINNLQQPWNSWIGRKKHELKPNNPTEEGLASIHSVLFRKDPFLWRAALLYYTVYKASHMSFCELFKDIGKFVKDPNTRWDYCVRAKRGWTDTSEPGCFSKDQVYLDGVLQILRFRESIDFHLLTALGKVSYEDVDRLKELAVTENMRVPHFLHDHSRYMEHLERIMEVNELTDAELKNLI | not soluble
7 | MENFAYYTPTRLIFGKGLAIITPRWMRHILNDHTLERFVKFSVDIYGLLRLRKRTFMKYLKHHCRIYEEYNRGRIFGQGVCLFIIYYKLEHHHHHH | not soluble
8 | MENFHFEHRGPRRDRFARERTGRPEGPHRHGHRRGRFGPEGDPGFGPGMHFGRGRGRGGRGRRGDVRSAILLLLTEEPMHGYELIQQIVERSDGVWKPSPGSIYPALSQLEDEGLVLIEKVAGRKTARLTDEGEAFVEANKTELGTPWDDVRESVGRPAEDLRGLIGLLMGAAGQVAAVGDDEQVRRAGEILTEARRAMYRLLAEDDQSEAGKDDTDS | not soluble
9 | MENLASPPDISFVIAAYNAADTIEAAVQSALDQRGVTLEVIVVDDRSADDTITFVEAIAAIDPRVRLLALEENRGPGGARNAGIEAATGRWIAVLDSDDVIRPERSACMMCRAEAANAAVAVDNLDVVYTDGRPMETMFPEEFLEERAVLTLEDFISSNILFRSTFNFGYMKPMFRRDFLNNEGLRFREDIRIGEDYILLASALAAGGLCVIEPKPGYIYNIREGSISRVLELHHVEAMMRADQEFLSHYTLLPAAMDAQQARARSLQLAHNFLTLVENIKRRSVLGALKTTIRDPAVLGHLRMPIAVRLRRLRDAMFAPAAKIQGLEHHHHHH | soluble
10 | MENLYKELGDQSLHKDFCQTVASTFSCSVNRNGKSSITWKQVQIWFQEKLKHQSQPKSKTLPSPPLQIHDLSNPSSYASNASNATFVGNSTFVQTRKGKASDLADLAFEAKSARDYAWYDVSSFLTYRVLRTGELEVRVRFSGFDNRHDEWVNVKTSVRERSIPVEPSECGRVNVGDLLLCFQEREDQALYCDGHVLNIKRGIHDHARCNCVFLVRYELDNTEESLGLERICRRPEE | not soluble
11 | MENVTESKELERLKRIDRMKTEFIANISHELRTPLTAIKAYAETIYNSLGELDLSTLKEFLEVIIDQSNHLENLLNELLDFSRLERKSLQINREKVDLCDLVESAVNAIKEFASSHNVNVLFESNVPCPVEAYIDPTRIRQVLLNLLNNGVKYSKKDAPDKYVKVILDEKDGGVLIIVEDNGIGIPDHAKDRIFEQFYRVDSSLTYEVPGTGLGLAITKEIVELHGGRIWVESEVGKGSRFFVWIPKDRAGEDNRQDN | soluble
12 | MEPMRIGPRLSVAAVSHVGRRQNNEDFHRVLPLETPAGLLLLLAVADGMGGLEAGEWASKLAIEALSEAARGYAEHLQSGRPAVGLARVMEKGFLLARRRVEREAERPGRRGMGTTLTAFLYADWLKEGVVGHIGDSRAYRFGPTGVFRLTEDHSWVAERLKEGVLTRTEAERHPYRNVLTRALGLPEARFDLVEVRLAPGEGVLLVTDGLYGHVPEEEWRLGRDLQASLEAMVAEALRRGGDDNVTAVALRVE | soluble
13 | MEQELISKKELLELTGISYGQLYRWKRKKLIPEEWFIRKSTFTGQETFFPKEKILARIEKIKELKDELSLDELAGMFAPDPAAVVLTKEEVIKRHIVSNVALQWLSDQLGDRQDVSFGQLLSLYIVDRLLRSGEINIEEGKNIWMMFESHYPKLQGKSCELVVLRKMGVTVCLLVEEAAGLYVEEGAKLVARLHVPTYIEELKLTISEG | not soluble
14 | MEQFPNSLSITLLGSAGGAAKAVLAILNQAIANEKDPIYEVLKNAKFHLVDIKQKDRTYYDELFSNLKGQLYLYEINLQNVVEFKQHLKEKRTSVVIDVSGADTIRVLSCCNELGICYINSALENEAVDQDDSLIGFQLTERYTRFEKEKEKFTNTKAIIGSGMNPGVVQWMVVELMKERPNERPRACYIVEHDTSFLNDTALIKPHTLYASWAVERFLDEAIWSYPMYMSHHRPLYFYEDVYASEYKVKLGEKEFYGCLMPHEEVLILGKNFNMEVGFLYRINEYTTNIIRQNLDQVEDLWNWNRKVFNPAEEEVAGEDLVGVLLVYENSETYMYNVMNSSQVFRKYKTNATYFQVGCGIYAGLSSLLLDQFEQGAYYVEELLLNTESKYGEYLNLYMKDFVIGHNNFTDGLLHDRVRWM | not soluble
15 | MEQIVSSLWSDCLNHLQTKVSPIDYSTWLRPLQASFANEELTLYAQNPFVENWVKDKFLTEIIDLARFLSKNEQLKITIRVGNKPTEQNLSASSTNKEELTQDTVHKFKTGLNGRLTFDNFVQGKSNQLAKAVAQQVADNPGESHCNPFSLYGGTGLGKTHLLHAVGNEILKRNPQARVVYIHSERFVQDMVKALKNNTIENFKKFYRSLDVLMIDDIQFFAKKEASQEEFFHTFNSLFERNKQIILASDHFPKNIENIEERIKSRLNWGVSTAIEPPELETRVAILMKKAEERNVELPEEVAFYLGQKLRTNVRELEGAINRVSAWCNFTKRQITIDAVRETLKDLIASYDHLVTIENIQKIVAEYYNIKMADLKSKSRTRSIARPRQMAMALAKELTSHSLPEIGREFGGRDHTTVMHACKTINELRDTDNSIQEDYTNLTRKLSSLEHHHHHH | soluble
16 | MEQNLKNIKISIIIPTLNEVGNIQQTIATTQPSVNIEVIVVDGGSQDDTVAIAQSLGVKVISSSPGRAVQMNTGAALAAGEILLFLHADTRLPVGFDEMIRAALQQPGVVAGAFALRIDADLAGLRWVEKGVYWRSHFFQMPYGDQAIFMTKAVFEKVGGFSELPIMEDFELMRRLKHIGKITVLGVAVITSGRRWLQRGVFQTTLINQVVIIAYLLGVAPAQLHSWYRQGKFFRIGGRLLEHHHHHH | soluble
17 | MEQPFDLAAELAKQPHLLEIAGNLLMKSGPEDYIGAVLCLRGTLYFKKAHTPLVRESLCQCFDEFERLAEPHLTWLWREEPAQGKPLTAYRDTQPLREMMGAMDEDDHLSFCYTSGKKSRDAGAWLFDIYGKRSWQAKMGHDLSVLEFSVPLLYQERQPLDFLQLFIDFARRLEPEQGYAGHAYNLSPTSWDNDEPSEAFMAARMPGLDVGTACLLANTPEFKPTRIKTVSWLTLLNNERLALAGGLDALRAQLPSSHFAFYRYGDGVVIQAGAYPYIAGDAEDSRPAPYVLLNHALKGIRYETIGSLHGGSHDGELRLVGWAADQWLKRLDVEDSEIPRWCDKLLSAEPYLDATNTLPERL | not soluble
18 | MEQQLTIEMIADAFSYDITGFDCGEEALNTFLKEHLKRQHDGQILRGYALVSGDTVPRLLGYYTLSGSCFERGMLPSKTQQKKIPYQNAPSVTLGRLAIDKSVQGQGWGEMLVAHVMRVVWGASKAVGIYGLFVEALNEKAKAFYLRLGFIQLVDENSNLLFYPTKSIEQLFTDDES | not soluble
19 | MEQQRSFQTETGGHLYLVPTPIGNLDDMTFRAVKTLTAVDLIAAEDTRNTQKLLNHFEITTKQISFHEHNTQERIPQLIAKLKQGMQIAQVSDAGMPSISDPGHELVNACIDAHIPVVPLPGANAGLTALIASGLAPQPFYFYGFLDRKPKDRKAEIAGLAQRPETLIFYEAPHRLKKTLQNLAAGFGDERPAVLCRELTKRYEEFLRGSLAELANWAATDTVRGEFVVLVGGNPAPTTAATTAVDLSEPIDVQVDRLIAAGEKPNDAIKEVAKLRGAKKQEIYRQYHHLDEE | soluble
20 | MERARVIAEAAAHISRELGAAAIMVSGDLNFEGIETGEIPVYYISMRPKSIIDHLVATSKDGKSPVKELGDQLTREASGNVEYVQHAAAIEYALEGPKNGIVVGVIETRGSSSIIVHNLDDNPLIKAMKECEERVNPEVMNAVLKIAFDIALTGREGKKIGAAFIVGDSEEVLKRSHQIILNPYEGHEEAHRNILDRRNWESIKEFALLDGVFVIDETGIVRAAGRYLDVDGKNIDIEKGLGGRHVSAAAISRDTVAISVTVSESGGVLRVYKDAKETICMESLQPASRYV | soluble
21 | MEREQALWIVKQQLTEQRYEHTLGVVETAVKLAKQYGADAKKAELAAIFHDYAKFRPVEEMKQIILAQNMPNDLLAYNSELWHAPVGAYLVQTEVGIDDPEVLDAIRYHTSGRAGMTVLEKIIYLADYIEPGRRFPGVDDVRRLAEEDLNRALLQAVKNTIAFLLEKRQLIYPDTIHAYNSLMREVKGEAKR | not soluble
22 | MERVNGEDIWQDREIRFDVDHKLLRLINGEIQVAKIEHVEDTKGNNGDRGTMRVTNLRLIWHAASMPRINITIGWNAITGVQSKQTTSLVTRNRGISNEAIYVLAKVSATTTKFEFIFTTTNPASHSKLFNTISSISRAYETTKMYRELKMRGVFIREDGTLKILPQETIIEKVNGVWNLSTETGSLGVFVITNIRVVWYAEMNIGYNVSVPYITLYSVRVRESKFGMALVLETTTSSGEYVLGFRVDPAERLQNLLKTVQSLHKAHLLKPIFGVSYVKEIAEKVEPRKDDDEIDIIDNNEDDVEIDDKIRPDAFASYFDGEHTATDEKQLPVLNPELGLAIEPIRNGFTLHDLWNIHVDV | not soluble
